Assay: label from the status in PepcDB records

Sequence | protein production
DGENYFIVDAHVALWDARRENQRNIHGKQFIDCFYDYHRNLSPASELWPYEDFLYQGGERLMKDLFTDGYVDHAIFQPAHLGAFYNTGFGQTEEAFALTRKHPGMLTYNHCFDPRFEEAGLKQLREDAARFGLKGVKLYTAEWKGDSRGYKLSDPWTYRYLDACRELGIKNIHVHKGPTIRPLDRDAFDVADVDAAASDFTDLNFVVEHCGLPRLEDFCWIATQEPNVHAGLAVAIPFMHTRPRYFAQIIGELLYWLDEDRIQFSSDYALWTPRWIVEQFVDFRIPDDMTGEYPQLTVAQKKKILGLNAAAMYDI | failed
MELIEVQEGKAKILIPKAESIYDSPVFYNPRMALNRDIVVVLLNILNPKIVLDALSATGIRGIRFALETPAEEVWLNDISEDAYELMKRNVMLNFDGELRESKGRAILKGEKTIVINHDDANRLMAERHRYFHFIDLDPFGSPMEFLDTALRSAKRRGILGVTATDGAPLCGAHPRACLRKYLAVPLRGELCHEVGTRILVGVIARYAAKYDLGIDVILAYYKDHYFRAFVKLKDGARKGDETLEKLGYIYFDDKTGKFELEQGFLPTRPNAYGPVWLGPLKDEKIVSKMVKEAESLSLARKKQALKLLKMIDQELDIPLFYDTHAIGRRLKIETKKVEEIISALREQGYEATRTHFSPTGIKTSAPYEVFIETIKRI | not failed
MSAVCGGAARMLRTPGRHGYAAEFSPYLPGRLACATAQHYGIAGCGTLLILDPDEAGLRLFRSFDWNDGLFDVTWSENNEHVLITCSGDGSLQLWDTAKAAGPLQVYKEHAQEVYSVDWSQTRGEQLVVSGSWDQTVKLWDPTVGKSLCTFRGHESIIYSTIWSPHIPGCFASASGDQTLRIWDVKAAGVRIVIPAHQAEILSCDWCKYNENLLVTGAVDCSLRGWDLRNVRQPVFELLGHTYAIRRVKMESCPVTQTRSQLTATSAFWVQAVLLPQPTE | failed
MPAIEVGETFTETRTFRPEDVDQFTALSGDDQPRHTEPDGDGRRMVQGLLTASLLTSIGGDLEVLASRMDLQFQRPVYTGETLVCELTVVSADPHTDGGVALVGDVAVRRVNRDDNSGQADTAAPNSADSAPAGTVVLEATVEGLIRE | failed
MMRYKEEKEVKKEAFRKYLESSGVLDSLTKVLVSLYEQNDKPSSALEFIQQKLGGPSVSDYEKLQAEKSDLQIKYNELLAKHQETLRELNGVKSLHSRNSSKDDADRETLEAEHTTLVTPHH | failed
LLNMKRAETGKALSPLQIQELQYMLEDFSPELIHEALKEAVSQGKANFAYIKVILNRWKQDNLLTVELVRN | failed
RMPTRRWAPGTQCITKCEHTRPKPGELAFRKGDVVTILEACENKSWYRVKHHTSGQEGLLAAGALRER | not failed
MGHNGIINYEVDVQDNKIEDLKILKHSETSGIFNQVIDKLKQNIITEQSFNVDTISGATVMTQALLKSADKAVTDAGVDVQLEHHHHHH | not failed
MASLLPSTGRGENIAGKLLLLIVALLMCIGVVVVYSSGAGWAEQKFSDPQYFLWRQLTFAIAGMAVIFVVGAIDYHIFRKISKLFLFVSIGLLAILLLLKLAHVIHGAARWLGFGPLKFQASDLAKYAIIFHFSRLLSEKRAYIKDLHDGYYPMLVLLMIVVALVALEPNFSTASIIAIIGFTLMFIGGIRIKYLLATASLLIPIAAVFAIAAPYRVARLVSFGGGEKELSYQVRQALLGLGNGGLFGLGLGASKQRELYLPLSYNDFVFVIIGEEYGFIGALVILLLFSGLFACGIIIAKHAPDLFGRYVAIGVTFAIVFFAFINIAVACHLMPTTGVALPFISYGGTALLFNSLGIGLLVSISRYRKKVETIERAQALLESKGGSL | failed
MSGHKCYSWELQDRFAQDKSVVNKMQQKYWETKQAFIKATGKKEDEHVVASDADLDAKLELFHSIQRTCLDLSKAIVLYQKRICFLSQEENELGKFLRSQGFQDKTRAGKMMQATGKALCFSSQQRLALRNPLCRFHQEVETFRHRAISDTWLTVNRMEQYRTEYRGALLWMKDVSQELDPDLYKQMEKFRKVQTQVRLAKKNFDKLKMDVCQKVDLLGASRCNLLSHMLATYQTTLLHFWEKTSHTMAAIHESFKGYQPYEFTTLKSLQDPMKKLVEKEGKKTSWRENREAVAPEPRQLISLEDEHKDSSTYKTEEGTSVLSSVDKGSVHDTCSGPIDELLDGKPEEACLGPTAGTPEPESGDKDDLLLLNEIFSTSCLDEGEFSREWAAVFGDDRLKEPAPMGAQGEPDPKPQIGSGFLPSQLLDQNMKDLQASLQEPAKAASDLTAWFSLFADLDPLSNPDAVGKTDKEHELLNA | failed
MNAIREGVRALCAEFDAAYWRRIDEQRGFPEAFVKALTDAGWLSAMIPEEYGGSGLGLAEASVILEEVNRCGGNSGTVHGQMYNMFTLLRNGSEAQKRFYLPKLASGELRLQSMGVTEPTTGTDTTKIKTTAVRKGDRYVINGQKVWISRIQHSDLMILLARTTPLAEVKRKSEGMSIFLVDLREAIGKGLTVQPIANMVNHETNELFFDNLEIPADSLIGEEGKGFRYILDGLNAERTLIAAECIGDGRWFIDKASHYARDRVVFGRPIGQNQGVQFPIAEAHIEVEAADLMRWRACQEYDAGLNAGASANMAKYLAAKASWEAANACLQTHGGFGFACEYDVERKFRETRLYQVAPISTNLILSYVAEHLLELPRSF | failed
MTTQTIDSAPHATWFVGASYGGTDDQMPRFLAEGIWENGYDDKLLEVVRSMRPGERIAIKSSYTRKHGLPFDSRGRAVSVMGIKAVGTITENLNDGKRVKVDWAKVEPVREWYFYTHRATIWRVLPGEWMNDALIAFAFDGKPQDVDRFRNEPFWRERYGTTSPEKQRFEWTDFYEAVAEKLLAHADDRTPLIEGIHEIASRVPGLTYLQDKFPDGTSGPLRDICPFTTMGTFNRSMTDANRKTLAGELAKLLGVTVPVPPSFEGIPVLNNQRSWFFAYADKRGAGDIDALWKVFVAASKMVDGDQLDTRDAFIRAYDEATQVWGVAWNLSTGLYWAHPWEFLTLDSQSRHYINKRLGLNVAISGQQGPCDGRAYLKLLDDLRSRFGEDGYPVHSFPDLSLASWMYKDPVDEPVPAGDIGTNAGAEQETEGEVREAFQVAAPIVPYSVEDILKDGCFLERAEIDRLLDRLRTKKNLILQGPPGTGKTWLAKRLAFALMGQKDDSKVRAVQFHPNLSYEDFVRGWRPTGEGKLSLADGVFMEAIKAASKDPSSKFVVVIEEINRGNPAQIFGELLTLLEAGKRTPNEALELCYPDADGKRRPVHIPENLYVVGTMNIADRSLALVDLALRRRFAFVGLEPRLGQVWRDWVVKECAVDPGLVADIERRIAELNDQIAADARLGKQFRIGHSYVTPAHRLEAGDTKKWFLQVVETEIGPLLDEYWFDAPDEAQKAIARLTQGWLEHHHHHH | not failed
MSQIEAVFFDCDGTLVDSEVICSRAYVTMFRQFGITLELTEVFRRFKGVKLYEIIDTISKEHGVALAKAELEPVYRAEVARLFDTELEAIAGANTLLESIKTPMCVVSNGPVSKMQHSLGKLGMLHHFPDLLFSGYDIQRWKPDPALMLHAANAMKVNVEKCILVDDSSAGAQSGIAAGMEVFYFCADPHNKPIDHPNVTTFTDLAQLPGLWKARGWEI | not failed
MRILIASQPIAGHVLPLREIARELARRGHELRWYTGRKFRPQVEAAGAVWEGFVHARDYDDANFDAAFPGRSARRGLAQLLFDLRHVFVGQMEGQFYDLRDLERRWRPDVVLADQTVGAALLREELGGPPVALLGVLPLGIASRDTAPFGLGLAPLGGAAGQLRNRALQVLTERVVFRGISAQLADLCTWLGLPARSFAPPVAPSLMLQPSVPRLEYLRRDLPPQVRFIGPLVLPAGEFTPPAWWNDILTAERPVVLVTQGTLATRPEQLLRPALAALADEDVLVVAAGVAPERLGPLPANARAAAFVPFTALLPHVAVSLTNGGYGGTVQALSHGVPCVVAGRSEDKAEVAARVAYSGAGLNLGTATPSPARIRAAVRRVLREPAFREQAGELGHELRQHDAPREAADWLETLGGKKLEHHHHHH | failed
MHSDSGSDSGSDSGSGSPMVSSIHPSEPIQPMEHVLEEADARLLTEVGFLAAAVSDLTRADAIFNALQRVRPGRTHPCIGLAVARMNAGLPDEAAEILANFQPAQPEDRSELDAWCGFALLLAGRSDEARRMLQRAIDAGGEAARLAQVVLDSGPAMMRPAPLQSEPLPGAPG | failed
MANGPGCACPRCGAPRASGPECPRCGVIYAKARARAAPSPAPSGPGTSLPDPGAAGLALGMPARARWSGELDGARRELWIRAVAPPAALLLALALVSSGPGHALLRTFLSMWIHELGHAVTAWLCGHGAFPGPWRTPISSGRLPLVVIAVSGALAALAWRGWRSGRRAILAAGAAGLGVQLVCTLLPATTARALITFGGDAGCMVIGAALVATIWADPEGPLGRGSLRWGFLVIGAAALVDALHGWVRAWRDPGELPLGEIEGVGLSDASTLMQVHRWSASALSGRYVALGLACLAALGATYAVMLARARGAVAAERRAA | failed
MSLDSDVIVDRRRMRRKLTFWRVAAVLVAIVAVVAIGAMVSPAGRGALTSTGSIARIKIEGLIRSNDERVQALDRLGKSSYSAVIVHINSPGGTTAGSEELHDALARLKAKKPMVVVVEGLAASGGYIAALASEHIVAQQTSLVGSIGVLFQYPNVSELLKTVGVKVEEVKSSPLKAAPNGFEPTSPEARAAIEALVKDSYAWFRGMVQQSRKMTDDQLNVVADGRVFTGRQAVGLKLIDELGDERTAIAWLEKAKNVKAGLPVRDYKLAPQFGDLTFLRAAASVAFDAAGLGVIARRVEQTGAMQSVERLGLDGMLALWAPSAGQ | failed
MAATRLKRRKFPTINEEFYYNQLENGMTVFLIPKESFKETLAVMSSRFGSIDTNFTVNGKKKSYLAGIAHLLEHQLFEMNKQKDAAYEFTKLGAESNAYTTFDKTIYYFSTADNIKKNLDLLQEFTSQINFTDMSIEKEKKIITQEFNMYQDDSDDYLYQVILSKLYPQTSLAEDITGNRDSIDKLTKNNLEENFHYFYQPENLTLLVAGDFDVKRVYKDIVTTQRQLPDRP | failed
MGWQTLKQQSVPARKRLLYLHIPFCATHCTFCGFYQNKLRDDSTATYTRYLLQELAMEADSPLHQSAPIHAVYFGGGTPTALAADELSQIIRAIRTSLPLAPDCEITVEGRAMDFDDERIDACLDAGANRFSIGIQTFDTRIRQRMARTSDKQQSIRFLERLCGRDRAAVVCDLMFGLPGQTPEIWREDLAIVSDLPLDGVDLYALNLLPTTPLAKAAENQRVALPDVVARRDFYRTGAAFLADSGWHQLSNSHWARTTRERNLYNLLIKQGADCLAMGSGAGGNINGQAYMMERSLERYYQQIDQGQKPIMMMTPASSTGPWQHQLQAGIEVGRIKLPQLTQHARELQPLLSQWHQAGLTCDDSTCLRLTNDGRFWANNLMQALQQIIPQLNAEEHAHLEHHHHHH | failed

Reference: a protein production outcome set (Wang et al. 2014)
